Data published in the supplement of paper PMC7877785.
± gives the uncertainty stated by the source.

Assay: self-splicing fitness, log relative to wild type (ln ratio); higher = more splicing; Tetrahymena group I intron in knt gene, E. coli kanamycin selection, DiMSum; sequences stand for … in CUCUCU…GGAGGGAAAAGUUAUCAGGCAUGCACCUGGUAGCUAGUCUUUAAACCAAUAGAUUGCAUCGGUUUAAAAGGCAAGACCGUCAAAUUGCGGGAAAGGGGUCAACAGCCGUUCAGUACCAAGUCUCAGGGGAAACUUUGAGAUGGCCUUGCAAAGGGUAUGGUAAUAAGCUGACGGACAUGGUCCUAACCACGCAGCCAAGUCCUAAGUCAACAGAUCUUCUGUUGAUAUGGAUGCAGUUCACAGACUAAAUGUCGGUCGGGGAAGAUGUAUUCUUCUCAUAAGAUAUAGUCGGACCUCUCCUUAAUGGGAGCUAGCGGAUGAAGUGAUGCAACACUGGAGCCGCUGGGAACUAAUUUGUAUGCGAAAGUAUAUUGAUUAGUUUUGGAGUACUCGUGGUCG
Procedure, shortened: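 The eight P1ex-region nucleotides of an intron in the knt kanamycin-resistance gene on pET-22b(+) were all randomised and the library put into E. coli BL21(DE3). Six replicate transformations were grown overnight at 37°C or 30°C on LB agar with or without 25 μg/mL kanamycin, together with 100 μg/mL carbenicillin, 50 μM IPTG and 0.2% rhamnose. Colonies were pooled and amplicon-sequenced on an Illumina HiSeq 2500. Fitness from DiMSum is the error-weighted combination of wild-type-normalised replicate fold changes, kanamycin over none.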

Sequence | self-splicing fitness (ln) (30 °C) | self-splicing fitness (ln) (37 °C)
GCCCAGCAAUAUUACGCCAG | -1.92 ± 0.13 | -2.32 ± 0.23
GCCCAGCAAUAUUACGCCCA | -0.496 ± 0.15 | -1.1 ± 0.17
GCCCAGCAAUAUUACGCCCG | -4 ± 0.28 | -2.36 ± 0.18
GCCCAGCAAUAUUACGCGAA | -2.09 ± 0.071 | -0.554 ± 0.072
GCCCAGCAAUAUUACGGAGA | -0.433 ± 0.062 | -0.0159 ± 0.072
GCCCAGCAAUAUUACGGAGU | -2.57 ± 0.084 | -0.683 ± 0.085
GCCCAGCAAUAUUACGGGAG | -0.834 ± 0.057 | -0.496 ± 0.067
GCCCAGCAAUAUUACGGGGG | -3.34 ± 0.11 | -2.78 ± 0.15
GCCCAGCAAUAUUACGGGUC | -4.06 ± 0.15 | -2.4 ± 0.16
GCCCAGCAAUAUUACGGGUG | -1.58 ± 0.048 | -0.819 ± 0.054
GCCCAGCAAUAUUACGGUGC | -3.13 ± 0.14 | -2.52 ± 0.18
GCCCAGCAAUAUUACGGUUA | -0.529 ± 0.054 | 0.488 ± 0.062
GCCCAGCAAUAUUACGUCGA | -1.5 ± 0.082 | -1.09 ± 0.086
GCCCAGCAAUAUUACGUGGA | -0.734 ± 0.063 | 0.199 ± 0.076
GCCCAGCAAUAUUACGUUGG | -3.22 ± 0.13 | -2.92 ± 0.15
GCCCAGCAAUAUUACGUUUA | -1.7 ± 0.079 | -0.893 ± 0.078
GCCGAGCAAUAUUACGAAUU | -2.59 ± 0.11 | -2.21 ± 0.15
GCCGAGCAAUAUUACGACGU | -0.371 ± 0.11 | -0.741 ± 0.11
GCCGAGCAAUAUUACGAGGG | -3.58 ± 0.27 | -1.91 ± 0.22
GCCGAGCAAUAUUACGAGUC | -1.86 ± 0.14 | -0.892 ± 0.16
GCCGAGCAAUAUUACGAGUG | -2.22 ± 0.14 | -2.16 ± 0.13
GCCGAGCAAUAUUACGAUAG | -2.94 ± 0.21 | -2.13 ± 0.21
GCCGAGCAAUAUUACGAUGA | -2.38 ± 0.12 | -1.28 ± 0.1
GCCGAGCAAUAUUACGAUGG | -2.48 ± 0.26 | -2.96 ± 0.31
GCCGAGCAAUAUUACGCAGA | -3.39 ± 0.47 | -2.39 ± 0.29

Sequence | self-splicing fitness (ln) (30 °C) | self-splicing fitness (ln) (37 °C)
GCCGAGCAAUAUUACGCAUU | -2.73 ± 0.14 | -0.759 ± 0.13
GCCGAGCAAUAUUACGCGGG | -4.07 ± 0.2 | -2.3 ± 0.18
GCCGAGCAAUAUUACGCUAG | -2.67 ± 0.17 | -3.17 ± 0.29
GCCGAGCAAUAUUACGCUGG |  | -2.07 ± 0.33
GCCGAGCAAUAUUACGGACA | -0.642 ± 0.083 | 0.233 ± 0.082
GCCGAGCAAUAUUACGGAGG | -3.45 ± 0.18 | -2.1 ± 0.21
GCCGAGCAAUAUUACGGCAA | -2.4 ± 0.33 | -1.91 ± 0.31
GCCGAGCAAUAUUACGGGGU | -4.35 ± 0.33 | -2.56 ± 0.2
GCCGAGCAAUAUUACGGGUU | -3.35 ± 0.17 | -0.886 ± 0.092
GCCGAGCAAUAUUACGUCGC | -4.48 ± 0.47 | -1.88 ± 0.25
GCCGAGCAAUAUUACGUCUG | -3.36 ± 0.32 | -2 ± 0.27
GCCGAGCAAUAUUACGUGAC | -2.14 ± 0.15 | -1.16 ± 0.19
GCCGAGCAAUAUUACGUGCA | -2.31 ± 0.25 | -2.24 ± 0.18
GCCGAGCAAUAUUACGUUAC | -3.09 ± 0.21 | -2.3 ± 0.19
GCCUAGCAAUAUUACGACAA | -2.19 ± 0.23 | -2.22 ± 0.32
GCCUAGCAAUAUUACGACUG | -3.25 ± 0.27 | -2.97 ± 0.4
GCCUAGCAAUAUUACGAGAA |  | -1.26 ± 0.4
GCCUAGCAAUAUUACGAGCC | -1.8 ± 0.15 | -1.67 ± 0.23
GCCUAGCAAUAUUACGAUUU | -1.98 ± 0.092 | -1.34 ± 0.097
GCCUAGCAAUAUUACGCAAA | -0.846 ± 0.14 | -1.41 ± 0.16
GCCUAGCAAUAUUACGCACG | -1.79 ± 0.23 | -1.43 ± 0.19
GCCUAGCAAUAUUACGCAGG | -4.18 ± 0.28 | -2.44 ± 0.25
GCCUAGCAAUAUUACGGACA | -1.03 ± 0.097 | -0.277 ± 0.11
GCCUAGCAAUAUUACGGAGG | -2.47 ± 0.29 | -2.65 ± 0.28
GCCUAGCAAUAUUACGGCCG | -3.44 ± 0.26 | -2.37 ± 0.32

Sequence | self-splicing fitness (ln) (30 °C) | self-splicing fitness (ln) (37 °C)
GCCUAGCAAUAUUACGGCGA | -2.64 ± 0.4 | -1.41 ± 0.28
GCCUAGCAAUAUUACGGCGC | -0.67 ± 0.14 | 0.263 ± 0.18
GCCUAGCAAUAUUACGGCGU | -0.505 ± 0.074 | -0.0919 ± 0.08
GCCUAGCAAUAUUACGGCUA | -1.2 ± 0.46 | -2.49 ± 0.39
GCCUAGCAAUAUUACGGGCA | -1.3 ± 0.12 | -1.61 ± 0.12
GCCUAGCAAUAUUACGGGGG | -2.92 ± 0.22 | -1.34 ± 0.13
GCCUAGCAAUAUUACGGUAG | -3.79 ± 0.18 | -2.99 ± 0.27
GCCUAGCAAUAUUACGUCAU | -2.73 ± 0.2 | -1.4 ± 0.17
GCCUAGCAAUAUUACGUCCU | -1.68 ± 0.068 | -0.494 ± 0.096
GCCUAGCAAUAUUACGUCGA | -1.67 ± 0.17 | -1.6 ± 0.21
GCCUAGCAAUAUUACGUGGG | -4.52 ± 0.23 | -3.36 ± 0.3
GCCUAGCAAUAUUACGUGUC | -1.13 ± 0.056 | -0.843 ± 0.058
GCGAAGCAAUAUUACGAAAA | -3.24 ± 0.43 | 
GCGAAGCAAUAUUACGAAAU | -3.46 ± 0.35 | -1.07 ± 0.22
GCGAAGCAAUAUUACGAACA | -1.49 ± 0.34 | -1.16 ± 0.29
GCGAAGCAAUAUUACGAGCG | -2.04 ± 0.14 | -1.11 ± 0.19
GCGAAGCAAUAUUACGAGGA |  | -1.58 ± 0.31
GCGAAGCAAUAUUACGAUUU | -1.09 ± 0.057 | -0.156 ± 0.075
GCGAAGCAAUAUUACGCAAG | -2.51 ± 0.42 | 
GCGAAGCAAUAUUACGCACU | -1.72 ± 0.18 | -0.633 ± 0.21
GCGAAGCAAUAUUACGCAUC | -4.03 ± 0.44 | -1.78 ± 0.23
GCGAAGCAAUAUUACGCAUG | -3.12 ± 0.44 | -2.76 ± 0.24
GCGAAGCAAUAUUACGCCAC |  | -2.24 ± 0.42
GCGAAGCAAUAUUACGCCUU |  | -1.5 ± 0.26
GCGAAGCAAUAUUACGCUAU | -2.45 ± 0.1 | -1.25 ± 0.11

Sequence | self-splicing fitness (ln) (30 °C) | self-splicing fitness (ln) (37 °C)
GCGAAGCAAUAUUACGGAAU | -3.17 ± 0.13 | -1.73 ± 0.13
GCGAAGCAAUAUUACGGAGC | -2.69 ± 0.16 | -2.52 ± 0.21
GCGAAGCAAUAUUACGGCCA | -0.992 ± 0.092 | -0.821 ± 0.1
GCGAAGCAAUAUUACGGGAG | -3.05 ± 0.17 | -2.62 ± 0.22
GCGAAGCAAUAUUACGGGGU | -3.89 ± 0.34 | -2.89 ± 0.29
GCGAAGCAAUAUUACGGUCG | -3.65 ± 0.32 | -2.77 ± 0.4
GCGAAGCAAUAUUACGGUUG | -1.54 ± 0.11 | -1.9 ± 0.15
GCGAAGCAAUAUUACGUCGA | -2.01 ± 0.1 | -0.792 ± 0.094
GCGAAGCAAUAUUACGUGCC | -3.73 ± 0.18 | -3 ± 0.23
GCGAAGCAAUAUUACGUUAG | -2.77 ± 0.12 | -2.35 ± 0.15
GCGCAGCAAUAUUACGAAAG | -2.66 ± 0.16 | -1.68 ± 0.14
GCGCAGCAAUAUUACGAAGG | -1.79 ± 0.087 | -0.733 ± 0.12
GCGCAGCAAUAUUACGACAA | -0.598 ± 0.12 | -0.342 ± 0.11
GCGCAGCAAUAUUACGACUC | -0.32 ± 0.17 | 0.304 ± 0.15
GCGCAGCAAUAUUACGACUG | -1.91 ± 0.12 | -1.98 ± 0.23
GCGCAGCAAUAUUACGAGUG | -1.6 ± 0.1 | -1.47 ± 0.15
GCGCAGCAAUAUUACGCAGC |  | -1.32 ± 0.33
GCGCAGCAAUAUUACGCCAC |  | -1.17 ± 0.36
GCGCAGCAAUAUUACGCCCG | -1.59 ± 0.2 | 0.0341 ± 0.27
GCGCAGCAAUAUUACGCCGU | -1.57 ± 0.13 | -2.07 ± 0.27
GCGCAGCAAUAUUACGCCUG | -2.75 ± 0.15 | -1.48 ± 0.15
GCGCAGCAAUAUUACGCGCA | -4.09 ± 0.32 | 0.322 ± 0.13
GCGCAGCAAUAUUACGCUAU | -0.914 ± 0.096 | -0.406 ± 0.12
